Test results published in US20240148878A1, “THERAPEUTIC POLY-ADP-RIBOSE POLYMER-GCSF CONJUGATES” (UNIVERSITY OF SOUTHERN CALIFORNIA, priority 2022, published 2024).

T1: GCSF receptor on mouse NFS-60 cells (mouse (NFS-60 cells)) (UniProt P40223)
T1 sequence (looked up): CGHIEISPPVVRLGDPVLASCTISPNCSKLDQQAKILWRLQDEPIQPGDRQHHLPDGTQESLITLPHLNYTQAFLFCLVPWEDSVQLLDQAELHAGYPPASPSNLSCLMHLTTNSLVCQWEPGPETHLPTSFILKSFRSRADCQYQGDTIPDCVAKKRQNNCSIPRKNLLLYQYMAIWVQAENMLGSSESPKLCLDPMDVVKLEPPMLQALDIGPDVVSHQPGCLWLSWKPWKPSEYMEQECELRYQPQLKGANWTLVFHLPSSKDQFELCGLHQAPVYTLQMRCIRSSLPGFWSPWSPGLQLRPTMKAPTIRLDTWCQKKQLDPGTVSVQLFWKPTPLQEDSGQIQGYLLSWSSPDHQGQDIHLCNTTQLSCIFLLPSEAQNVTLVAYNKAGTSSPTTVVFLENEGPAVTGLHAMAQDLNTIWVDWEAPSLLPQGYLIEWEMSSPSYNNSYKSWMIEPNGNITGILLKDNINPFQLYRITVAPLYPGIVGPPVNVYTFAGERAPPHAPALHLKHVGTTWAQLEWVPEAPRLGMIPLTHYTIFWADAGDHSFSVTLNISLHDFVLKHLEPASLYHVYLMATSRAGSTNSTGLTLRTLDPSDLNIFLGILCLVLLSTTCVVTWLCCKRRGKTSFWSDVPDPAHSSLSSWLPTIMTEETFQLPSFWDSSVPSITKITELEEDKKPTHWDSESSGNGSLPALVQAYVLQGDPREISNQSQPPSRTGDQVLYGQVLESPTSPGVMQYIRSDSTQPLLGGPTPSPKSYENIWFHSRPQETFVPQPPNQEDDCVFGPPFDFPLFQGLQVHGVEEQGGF


Key:
[1] = target: anti-GCSF monoclonal antibody (clone: BVD13-3A5, BioLegend); experiment: sandwich ELISA, BVD13-3A5 coated, detection anti-GCSF 3D1-HRP; analyte 500 ng/mL, replicate #1
[2] = target: anti-GCSF monoclonal antibody (clone: BVD13-3A5, BioLegend); experiment: sandwich ELISA, BVD13-3A5 coated, detection anti-GCSF 3D1-HRP; analyte 125 ng/mL, replicate #2
[3] = target: anti-GCSF monoclonal antibody (clone: BVD13-3A5, BioLegend); experiment: sandwich ELISA, BVD13-3A5 coated, detection anti-GCSF 3D1-HRP; analyte 500 ng/mL, replicate #2
[4] = target: anti-GCSF monoclonal antibody (clone: BVD13-3A5, BioLegend); experiment: sandwich ELISA, BVD13-3A5 coated, detection anti-GCSF 3D1-HRP; analyte 250 ng/mL, replicate #2
[5] = target: anti-GCSF monoclonal antibody (clone: BVD13-3A5, BioLegend); experiment: sandwich ELISA, BVD13-3A5 coated, detection anti-GCSF 3D1-HRP; analyte 31.25 ng/mL, replicate #1
[6] = target: anti-GCSF monoclonal antibody (clone: BVD13-3A5, BioLegend); experiment: sandwich ELISA, BVD13-3A5 coated, detection anti-GCSF 3D1-HRP; analyte 62.5 ng/mL, replicate #1
[7] = target: T1, GCSF receptor on mouse NFS-60 cells (mouse (NFS-60 cells)); experiment: cell-based or functional assay
[8] = target: anti-GCSF monoclonal antibody (clone: BVD13-3A5, BioLegend); experiment: sandwich ELISA, BVD13-3A5 coated, detection anti-GCSF 3D1-HRP; analyte 31.25 ng/mL, replicate #2
[9] = target: anti-GCSF monoclonal antibody (clone: BVD13-3A5, BioLegend); experiment: sandwich ELISA, BVD13-3A5 coated, detection anti-GCSF 3D1-HRP; analyte 125 ng/mL, replicate #1
[10] = target: anti-GCSF monoclonal antibody (clone: BVD13-3A5, BioLegend); experiment: sandwich ELISA, BVD13-3A5 coated, detection anti-GCSF 3D1-HRP; analyte 250 ng/mL, replicate #1
[11] = target: anti-GCSF monoclonal antibody (clone: BVD13-3A5, BioLegend); experiment: sandwich ELISA, BVD13-3A5 coated, detection anti-GCSF 3D1-HRP; analyte 62.5 ng/mL, replicate #2
[12] = system: neutrophil populations in blood; experiment: In vivo efficacy: neutrophil populations in blood by flow cytometry after single s.c. dose; design: species or system CD1 mice; conditions: for neutrophil percentage reached after sharp increase: within 24 hours, from approximately 10%
Text: FIG. 4A-C illustrates in vivo efficacy of the PARylated PARP1-GCSF conjugate. Single doses of GCSF (1.25 nmol), PARylated PARP1 (2.5 nmol) and PARylated PARP1-GCSF conjugate (0.5 or 2.5 nmol) were administrated by subcutaneous (s.c.) injections into CD1 mice (five per group). Blood was collected and analyzed for neutrophil populations by flow cytometry using fluorophore-labeled anti-mouse CD45, anti-mouse CD11b, and anti-mouse Ly-6G antibodies. (A)-(B) Neutrophil percentages in mouse blood after the single-dose treatments. For (B), 1=PBS; 2=GCSF 1.25 nmol; 3=PARylated PARP1 2.5 nmol; 4=PARylated PARP1-GCSF 0.5 nmol; 5=PARylated PARP1-GCSF 2.5 nmol. (C) Representative flow cytometric analyses of mouse neutrophil populations after treatments with 1) PBS; 2) GCSF 1.25 nmol; 3) PARylated PARP1 2.5 nmol; 4) PARylated PARP1-GCSF 0.5 nmol; and 5) PARylated PARP1-GCSF 2.5 nmol conjugate. ns=not significant, p>0.05; *, p<0.05; **, p<0.01; ***, p<0.001; ****, p<0.0001. Data for the 5 conjugates are listed for days 0, 1, 5, and 11.
Animals. Female CD-1 IGS mice (22-24 g) were purchased from Charles River Laboratories (Wilmington, MA). All animal studies were performed under a protocol approved by the Institutional Animal Care and Use Committee of the University of Southern California.
In vivo efficacy of the PARylated PARP1-GCSF conjugate. Single doses of GCSF (1.25 nmol), PARylated PARP1 (2.5 nmol), or PARylated PARP1-GCSF conjugate (0.5 or 2.5 nmol) were administrated by subcutaneous (s.c.) injections into CD1 mice (5 per group). Blood was collected at day 0 through day 13 and analyzed by flow cytometry to measure percentages of neutrophil populations in white blood cells using pacific blue anti-mouse CD45 (clone: 30-F11, BioLegend), APC anti-mouse CD11b (clone: M1/70, eBioscence, Carlsbad, CA), and FITC anti-mouse Ly-6G antibodies (clone: 1A8, BioLegend).

mouse NFS-60 cells = experiment: In vitro proliferation assay (MTT); format: cell-based; conditions: for EC50: NFS-60 cells, 72 hours, MTT, read-out: EC50 of stimulatory (proliferative) activity
Protocol: FIG. 3 illustrates the PARylated PARP1-GCSF conjugate stimulates proliferation of mouse NFS-60 cells in a dose-dependent manner. Cells were treated with various concentrations of PARylated PARP1, PARylated PARP1-GCSF conjugate, and human GCSF for 72 hours. Cell viabilities were quantified using MTT assays.
Cell lines. Mouse NFS-60 cells were grown in RPMI 1640 medium containing 10% FBS, 0.05 mM 2-mercaptoethanol and 62 ng/mL human recombinant macrophage colony stimulating factor (M-CSF). Expi293F cells were purchased from Thermo Fisher Scientific and cultured in Expi293F expression medium with shaking at a speed of 125 rpm at 37° C. and 8% CO2.
In vitro proliferation assays. Mouse NFS-60 cells were cultured in RPMI 1640 medium containing 10% FBS, 0.05 mM 2-mercapoethanol and 62 ng/ml human recombinant M-CSF. To examine the proliferative activity of PARylated PARP1-GCSF conjugate, cells were washed three times with DPBS buffer, resuspended in RPMI-1640 medium with 10% FBS and 0.05 mM 2-mercapoethanol, plated in 96-well plates (1.5×10^4 cells per well) with various concentrations of GCSF, PARylated PARP1, or PARylated PARP1-hG-CSF conjugate, and incubated for 72 hours at 37° C. with 5% CO2. Cells were then treated with 0.5 mg mL^−1 3-(4,5-dimethylthiazol-2-yl)-2,5-diphenyltetrazolium bromide (MTT) solution for 3 hours at 37° C., followed by additions of 100 μL of lysis buffer (20% SDS in 50% dimethylformamide, 0.5% (v:v) 80% acetic acid, 0.4% (v:v) 1 N HCl, pH 4.7) and incubated for 4 hours at 37° C. Fluorescence intensity measured at 595 nm is proportional to cell viability.

Molecule	Fluorescence Intensity [1]	Fluorescence Intensity [2]	Fluorescence Intensity [3]	Fluorescence Intensity [4]	Fluorescence Intensity [5]	Fluorescence Intensity [6]	EC50, proliferation of mouse NFS-60 cells (MTT, 72 hours) [7] [pM]	Fluorescence Intensity [8]	Fluorescence Intensity [9]	Fluorescence Intensity [10]	Fluorescence Intensity [11]	fold potency against free GCSF, proliferation of mouse NFS-60 cells [7] [fold]	duration of sustained elevated levels of neutrophil ([12]; conjugate 2.5 nmol) [days]	neutrophil-stimulating activity compared with 1.25 nmol GCSF ([12]; conjugate at a dose of 0.5 nmol)	neutrophil percentage reached after sharp increase [12] [%]	EC50 (mouse NFS-60 cells) [pM]	fold increased potency versus recombinant human GCSF (mouse NFS-60 cells; ratio of EC50, NFS-60 cells)
PARylated PARP1-GCSF conjugate: Auto-PARylated human PARP1 (3′-azido NAD+-derived PAR polymers) click-conjugated with alkyne-functionalized human GCSF, 14.0±0.5 GCSF molecules on average	–	–	–	–	–	–	–	–	–	–	–	–	11	comparable	~50	6.02 ± 0.93	approximately 4 fold
GCSF: Recombinant human granulocyte colony-stimulating factor (His6) expressed in Expi293F cells (protein) TPLGPASSLPQSFLLKCLEQVRKIQGDGAALQEKLVSECATYKLCHPEELVLLGHSLGIPWAPLSSCPSQALQLAGCLSQLHSGLFLYQGLLQALEGISPELGPTLDTLQLDVADFATTIWQQMEELGMAPALQPTQGAMPAFASAFQRRAGGVLVASHLQSFLEVSYRVLRHLAQPHHHHHH	–	–	–	–	–	–	–	–	–	–	–	–	–	–	~50	24.8 ± 3.21	–

Continued, in another order:

Fluorescence Intensity [1]	Fluorescence Intensity [2]	Fluorescence Intensity [3]	Fluorescence Intensity [4]	Fluorescence Intensity [5]	Fluorescence Intensity [6]	EC50, proliferation of mouse NFS-60 cells (MTT, 72 hours) [7] [pM]	Fluorescence Intensity [8]	Fluorescence Intensity [9]	Fluorescence Intensity [10]	Fluorescence Intensity [11]	fold potency against free GCSF, proliferation of mouse NFS-60 cells [7] [fold]	Molecule	duration of sustained elevated levels of neutrophil ([12]; conjugate 2.5 nmol) [days]	neutrophil-stimulating activity compared with 1.25 nmol GCSF ([12]; conjugate at a dose of 0.5 nmol)	neutrophil percentage reached after sharp increase [12] [%]	EC50 (mouse NFS-60 cells) [pM]	fold increased potency versus recombinant human GCSF (mouse NFS-60 cells; ratio of EC50, NFS-60 cells)
75700	42700	76500	60700	19900	29400	24.8	20700	42300	62200	29800	–	Recombinant human granulocyte colony-stimulating factor (GCSF) with His6 tag, expressed in Expi293F cells (from UniProt P09919 31-207) (ligand)	–	–	–	–	–
64500	44700	64900	49200	15900	22800	6.02	15900	32100	49400	20700	4	PARylated PARP1-GCSF conjugate (from UniProt P09874 1-1014)	–	–	–	–	–
